Reference: paper PMC8664833

Biological target: ZAP-S (short isoform of zinc-finger antiviral protein) (human, UniProt Q7Z2W4-2 1-699)
Assay: MST; 5 mM Mg2+
Details: protein: recombinant, tags: N-terminal 6xHis-SUMO, label: 3' pCp-Cy5

Chain of ZAP-S (short isoform of zinc-finger antiviral protein) (Q7Z2W4 other isoform, or with tags, fused parts or gaps): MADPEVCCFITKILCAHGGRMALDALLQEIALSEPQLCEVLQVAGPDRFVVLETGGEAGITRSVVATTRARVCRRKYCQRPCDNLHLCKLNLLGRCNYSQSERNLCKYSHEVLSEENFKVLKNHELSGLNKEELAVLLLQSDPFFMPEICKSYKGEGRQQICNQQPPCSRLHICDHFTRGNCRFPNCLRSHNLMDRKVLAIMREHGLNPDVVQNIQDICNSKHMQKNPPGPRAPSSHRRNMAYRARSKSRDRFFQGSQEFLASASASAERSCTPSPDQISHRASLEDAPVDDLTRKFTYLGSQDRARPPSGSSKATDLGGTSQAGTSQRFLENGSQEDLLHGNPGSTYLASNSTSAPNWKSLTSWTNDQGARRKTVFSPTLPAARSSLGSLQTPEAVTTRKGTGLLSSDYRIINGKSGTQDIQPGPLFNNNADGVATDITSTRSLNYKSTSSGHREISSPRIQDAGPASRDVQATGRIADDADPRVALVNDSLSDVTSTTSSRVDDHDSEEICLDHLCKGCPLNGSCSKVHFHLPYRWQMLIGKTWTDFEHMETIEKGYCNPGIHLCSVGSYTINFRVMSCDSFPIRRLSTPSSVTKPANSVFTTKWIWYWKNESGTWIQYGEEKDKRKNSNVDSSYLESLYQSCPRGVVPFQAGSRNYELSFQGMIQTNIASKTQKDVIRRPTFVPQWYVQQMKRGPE

B1: Compensatory mutant (structured_RNA)
RNA: UCGUUUUUAAACGGGUUUGGGGUGUAAGUGCAGCCCGUCUUACACCCUGGGGCACAGGCACUAGUACUGAUGUCCUAUACAGGGCU
Kd (pseudoknot (predicted)): 128 ± 29 nM

B2: dSL2 mutant (structured_RNA)
RNA: UCGUUUUUAAACGGGUUUGCGGUGUAAGUGCAGCCCGUCUUACACCGUGCGGCACAGGCACUAGUACUGAUGUCGU
Kd (two consecutive stem-loops): 672 ± 164 nM

B3: dSL2+3 mutant (SL1 only) (structured_RNA)
RNA: UCGUUUUUAAACGGGUUUGCGGUGUAAGUGCAGCCCGUCUUACACCGU
binding result (hairpin): no binding

B4: dSL3 mutant (structured_RNA)
RNA: UCGUUUUUAAACGGGUUUGCGGUGUAAGUGCAGCCCGUCUUACACCGUAUACAGGGCU
Kd (shorter pseudoknot (predicted)): 175 ± 64 nM
